Experiment: purified protein yield per well (BCA); higher = higher soluble expression
Procedure, shortened: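 Purified protein yield per well is reported, as measured by the Pierce Rapid Gold BCA kit. The enzymes came from E. coli C41(DE3) autoinduction cultures of 2 mL with 100 µg/mL kanamycin, held at 37 °C for 2 h and 18 °C for 40 h, then lysed and purified on Ni-charged magnetic beads with SUMO protease release. The detection threshold is 25 ug (0.1 mg/mL), and lower values are under it.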

Purified protein yield per well, < 25 µg:
LTLDDLKKDGPYAISAQTIPASGFGKGTVYSPNTPGKYALVAVCPGFVSAESSITEISKRLATHGFVVVTIGTKTLLDFPSSRASQLLAALKAASAVTTGPAAGKIDVTRQVVAGWSMGGGGTLEAAAATPGLKAAVAYAPWNLSSSKYKSITVPSAIIGGTADSVAPVSSHSQPFYNAIPATTPKLLGVIQGADHFFPNKAAEPASYTNIAWVKRFADGDTQYGVFLRGQDAAWASFVSTGPF [ESM117]
LTLDDLKKDGPYAVSSQTIPGSGFGKGTIYSPNAAGKYALVAVVPGFVSAESSMTEISKRLATHGFVVVTIGTKTLLDFPSSRASQLLAALKAASAVTTGPVAGKIDVTRQVVSGWSMGGGGTLEAAASTPGLKAAVAYAPWNLSSTKYKAITVPSAIIGGTADTVASVSAHSQPFYNAIPATTRKLLGVIQGADHFFPNKAVDPASYTNIAWVKRFADGNTAYAPFLAGQDAAWASFVSTGPF [ESM087]
LWLGLGGVLSLIGFVVIGVETNSRTDYDVARGTQLLAALDYLTQQSPVRNRVDPNRLGVIGHSMGGGGVVYATEHRPALKAAVALAPFSPSQNMSTDTVPTMVMAGQNDTVVTPSYLSGLYATMPAATQSDFLQIAGADHVYYTHPNSVEMRILIPWIKTFLDNDTRYTQVICPGLAL [TEP112]
MAAGGLVAAQAAGAQAAPAQAAAANPYERGPAPTEASIEAARGSYAVSQTTVSSLSVSGFGGGTVYYPTSTSDGTFGAVVISPGYTAYQSSIAWLGPRLASQGFVVFTIDTLTTLDQPDSRGRQLLAALDYLTQSSSVRTRIDSSRLGVMGHSMGGGGTLEAAKSRPSLQAAIPLTGWNLDKTWPEIKTPTLIVGADGDTIAPVATHSEPFYESLPSSLDKAYLELNGATHFTPNSSNTTIAKYSISWLKRFIDNDTRYEQFLCPLPRPSLTIDEYRGNCPHTS [TEP052]
MASITNPGPYSVSLLIEGVDDIRNGPDYDGATIYYPSNGVPPYAGIAIIPGYCGVETDIENWGPFYASHGIIAITLGTNNPCADWPAVRALALLDAIETIKSENTREGSPLNGKVDVNSFAVSGWSMGGGGAELAASIDPSLKAVVGLCPWLDLNGFETSDLIHDVPVLIFTGQNDDIAGSAEYGYMHYTNTPNSTDKLYFEIENEGHEAANAPNMAGGEKGIYALSWLTI [TEP051]
MASVAAQYGPFATAQITVPPGNGFNGGFIYYPTDTSHTYGAVAIVPGYTALFANEEAWMGPRLASFGFVVIGVETNNRNDYDTARGTQLLAALDYLTNSSAVRDRVDRNRLSVIGHSMGGGGALYAATQRPSLKAAIGLAPFKPSGNLASDNVPTMIIGGINDTTVTPSYLDGLYPTLPASTPGAYIQLANADHLYFTRPNDIELRSQIEWLKIFVDNDTRYTQFLCPSIKDTTGIVRSSVKCSTIPSGGSTPPSSPSVPPSSPPSGPQRILGSQSGRCVDVPNATHDNGTRVQLYDCNGQANQQWTYTSSKQLTVYGNVCLDAAGSGNGSAVQIYSCNGQPNQQWNVNANGTITGVQSGRCLDVWGTGNGQQFQLWDCNGQANQRFGLS [ESM074]
MCHISAPVPPRAPGCPQFAHWLEVRAVLGSNGAFPTSGRTGADPSGARGTGGRWRRGVAALSTAAVLGALTVVGAVQSASGADNPYQRGPDPTASYVSGSRGSFATAQVSVPAGNGFGGGVIYHPTDTTQGTFGAIAVVPGYTATWAAEGAWMGHWLASFGFVVIGIDTNGREDWDTARGTQLLAALDYLTQRSSVRDRVDASRTAVMGHSMGGGGAMYAALQRPSLKTTVGLAPFSPSQNLTNLRVPAMLLSGQNDTTTTPSSIVNLYNGIPAATEKAYLELSGVGHSFPTSSNPTMMRNVIPWLKIFIDSDTRYTQFLCPLSNSNGIRSYQNTCPLVPSSVPTTSSTTTSTSTTTTTTTTTTTTTTTSVPVGACSASFRTTNTWPGGYQGEVTVTAGSSAVNGWTVQWTLDSGQSISQVWNGTLSVSGSAVSVRNVSYNGSLPPNASATFGFIGGGSPSTSPFTCTSP [ESM077]
MEAIVRRGGTRGQVTGILVAVLAMVVALAGAVLAARPALAQPRDTAPGNPYQRGPDPTVAMIEASAGPFATASTSVPAGHGFNGGTVYYPTDTSLGTWGALAIVPGYSALFANEEAWMGPWLASFGFVVIGVETTTRTDSADARGTELLAALNYLTTQSPVRDRVDPNRLSVLGHSAGGAGAMLAAERQPTLKAAVGLAPGSPVGNLSLAADTVPTMVIGGQNDAVVTPSYLSGLYATMPASTQSDFAQVAGADHVYYTHPNNVEMKLLIPWLKTFLDNDTRYTPFLCPAPPDPSSISLYTPKCPYVPGGSAPGGGNTGALHAVGAAKCLAAPSTGAPGAQVTIGTCGGQAGQIWTHTAAAQLTVTLGGATLCLDASGQGSSPGTKVIVWSCNGQVNQQWNLNADGTVTGAQSGLCLDVTGASTADGAPVELWSCNGGGNQQWHLG [TEP068]
MFSASTFAYNPAPPPPSPTPTPTPGPLPGQPNDGFQRGPNPSVSLLEAERGPFSVRNARVSSSVRGFGGGTIYYPTGTTGTMGAIVVIPGYVSPESSIAWWGPKMASHGFVVMTIATNRTTDQPSSRATQINAALDYLISQNSTSGSPVRNMIDTDRLGVMGWSMGGGGTLRVASQNRLKAAIPLAPYDTISFRNVDAPTLIFGCESDTVAPVRNHASPFYNQIPAGTDKAFVELNGGSHTCANGGNQYNDVLSRLGVSWMKRHLDNDTRYSQFLCGPNHTSDRDISEYRGNCPY [DP070]
MGFGGGTIYYPTTSGQYGAIAVCPGFTGTSSSISWFARRLATHGFVTIAMNTTTTLDYPSSRATQLAAALRYLLNSSSSTIRSRIRTADRGVAGHSMGGGGTLIASANDSTLRAGIPMTPWNTYTSFSSVRVPQMIFGADGDTIAPYATHARPFYNSISLAEKAYALLNGAGHFTPNSTDQRIRRYGVAFAKRFVDGDTRYNPFLCGAEHTAYATSSRFQTYLSNCPY [ESM185]
MGPWLASFGFVVLGIETNSRTDGADARATQLLAGLDYLTRTSPVRSRVDPNRLSVMGHSAGGAGTLLAALRRPSLRTAVGLAPGTPGNNLNMSTTQVPTLLLSGQNDGTVTPSYVQGIYNTLPAGVEHAWAELAGNDHLSFTRSNPTEMRLLIPWLKIFLDYDTRYTQFLCPLSNSTGVSRYSSTCPLVPPGGPTVPPTTTPPPTTPPPTTPPTTPPPTTPPPTTPPPGTACTATYRTIGSWSGGFQGEVTVTAGSAAVDGWTARWQLASGQGISQVWNGTLSTSGTTVTVRNADYNGTLAPGTSTTFGFLGTGTPNSPSPTCTSP [ESM008]
MGSNPYQRGPDPTTSSLEASRGPFSVASFTVSRPSGYGAGTVYYPTNAGGKVGAIAIVPGYTARQSSINWWGPRLASHGFVVITIDTNSTLDQPSSRSSQQMAALRQVVSLSGTSSSPIYNKVDTSRLGVMGWSMGGGGSLISARNNPSLKAAAPQAPWNSSKNFSSVTVPTLIIACENDTIAPVNSHALPFYNSMSRNPKQYLEINGGSHSCANSGNSNQALIGKKGVAWMKRFMDNDTRYSSFACSNPNSSSVSDFRTENCSAS [TEP184]
MGVRYPEQGGFGGVAAVPGYNSAEKAVAWLGPRLASQGFVVITIATKGRSDQPTARGKQLLAALDYLTAKSPAAVRQRLDPQRLAVTGHSMGGGGSLYAAWTRPGLKAAVPLAPWHSIKNWSGITVPTLVQGGTSDDVAPVGTHAEPIYRSLTGARERAYAESAGADHGTFVREDPLIGALTVAWLKRFVDDDARYEQFLCPAPADPGLTEYRHSCPSS [TEP121]
MHPSFPESEDPAPAARHSAAPLSRDCAHPPARRSTHRTAHRIAHRTARPDRSRRRIRGVLAAATAALLAVAGLTLIPNASAAENPFERGPAPSASSLAAARGPFATSQVTVSSRDASGFGGGTIYFPTSGDEGTFGAVAVAPGFTASRSSMAWLGPRLASQGFIVFNIDTITRSDQPASRGRQLLAALDFLVERSPIRDRVDPDRLAVMGHSMGGGGALEAAESRPTLRAAIPLTPWNLNKNWSRVQVPTMVIGAERDTIASVRFHSEPFFDSLPSDLDKAYLELNNASHFAPNIPNATISSFSVAWLKRFVDDDTRYEQFLCPPPRPAGEISEYQDTCARAS [TEP191]
MIYYPTDTSQGTFGAIAISPGYTALFSVELAWMGPRLASQGFVVIGIETNDRNDFDTARGTQLLAALDYLTGQSSVRSRVDPNRLAVAGHSMGGGGAFSAALRRPALKAAVGFTPFSPSQNLTNMQVPALLYSGQYDTVTTPSSVSNLYNGLPSTTEGAYIEAAGLDHSFPTRPNTLLMRTMIPWVKIFLDNDLRYTQFLCPLMDSSGVLQYRNTCPLVPPGLPSPSPTTAPPTTAPPTTAPPTTAPPTTAPPTTAPPTTAPPTTAPPSGACTATYQTIGSWPGGFQGEVTVRAGNSAINGWTVGWSLGSGQSITQIWNGTLSTSGSSVSVRNVSYNGSLPAAGTATFGFLGSGSPSTPSTVTCTSP [ESM001]
MKSSGSAFRDPSGTVPTGRPAGRSWRYALALVAATTTLVALTVAGGTQQATGADNPYQRGPDPTRASVSANRGTFATAQVSVPAGNGFGGGVIYYPTDTSQGRFGAIAVVPGYTATWAAEGAWMGHWLASFGFVVIGIDTNSRNDWDNARGTQLLAALDYLTQRSSVRDRVDASRTSVMGHSMGGGGAANASLQRPTLKTAIGLAPASFSQNLTTTKVPTMLLAGQYDGTVTPSSVLNLYNGIPAGVEKAYLELTGAGHGFPTSNNPTMMRTIIPWFKIFVDSDTRYTQFLCPLADTNGIRTYQSTCPLVPSTPPTSTSTTTTTTGVPTGSTYVGQQSGRCLDVTGQSQTNGAKAQLWDCNGQSNQKWTLTSAAELRVYGGKCLDLPSNSAAGTQAQIWDCNGQSNQKWTHGTDGSIRHTQTGLCLDANGQGTANGTQVNSWNCNGQTNQKWTRR [TEP008]
MLRVTHHPPPGGTDSARTRTALPAPGAAPPRPGLPRRRGRLVTLAAAGIAAALVGLFTMTVATGTASAADNPYQRGPDPTRSSVASVNGPFANTSVAVPTGYGFNGGRIYYPTDTSQGTFGAVAISPGYNALFSAELAWMGPWLASHGFVVIGIETNSRNDFDTARGTQLLAALDYLVQQSPVRDRIDPNRLAVSGHSMGGGGALSAALRRSSLKAAVGIAPYSPSSNLANDRVPTMVFAGQADTVVTPSYATGLYNSLPVTTESAYLEVAGADHGFMVGRSNPVLIRTMLPFLKMFVDNDARYSQFLCPLADNNGVVSYRSTCPLLPSTPTTPPPTPSDTPPPTPSQTPTSSPTGNPPGTASLIVGAQSNRCLDVPNASRANGTRVQLWDCNRQANQSWTYTSGKQLRVYGDMCLDAAGSGNGAAVQIYGCHSQTNQQWNVNANGTISSVQSGRCLDVWSTANGAQVQLYDCHGQTNQRFTLTPLT [TEP176]

— the supplement of paper PMC12455559
